The series concerns the target T1, alpha-fetoprotein (AFP) (UniProt P02771 19-609).
T1 sequence: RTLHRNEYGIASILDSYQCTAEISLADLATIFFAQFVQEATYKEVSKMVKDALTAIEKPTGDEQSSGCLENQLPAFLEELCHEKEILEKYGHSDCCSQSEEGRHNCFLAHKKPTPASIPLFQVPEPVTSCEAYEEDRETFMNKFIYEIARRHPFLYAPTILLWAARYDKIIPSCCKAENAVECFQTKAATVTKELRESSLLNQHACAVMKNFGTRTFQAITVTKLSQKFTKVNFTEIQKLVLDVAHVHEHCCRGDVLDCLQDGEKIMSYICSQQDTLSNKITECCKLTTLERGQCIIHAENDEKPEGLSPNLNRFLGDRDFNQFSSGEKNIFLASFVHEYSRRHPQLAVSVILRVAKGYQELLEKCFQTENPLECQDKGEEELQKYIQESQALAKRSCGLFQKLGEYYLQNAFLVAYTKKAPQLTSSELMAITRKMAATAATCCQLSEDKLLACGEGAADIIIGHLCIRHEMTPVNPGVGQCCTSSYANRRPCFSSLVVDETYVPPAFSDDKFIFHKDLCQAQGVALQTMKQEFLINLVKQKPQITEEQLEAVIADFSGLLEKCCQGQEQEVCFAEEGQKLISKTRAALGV
Nature of the series: lateral flow aptamer sandwich; AP-273 as both AuNP probe and capture probe; 100 ng/mL AFP detected; LOD 10 ng/mL; Lateral flow strip, 50 uL running buffer (composition not in the material); pads pretreated with 0.05 M Tris-HCl, 2.5% Tween-20, 0.25% Triton X-100; assay pH and temperature not given. The following applies: label: AuNP (Det-Apt); biotin-streptavidin (Cap-Apt).

From paper PMC11820797, “Rapid Detection of Alpha-Fetoprotein (AFP) with Lateral Flow Aptasensor” come the findings set out here.

B1: AP-273 (Det-Apt / Cap-Apt) (ssDNA)
DNA: GTGACGCTCCTAACGCTGACTCAGGTGCAGTTCTCGACTCGGTCTTGATGTGGGTCCTGTCCGTCCGAACCAATC
modifications: thiol (Det-Apt) or biotin (Cap-Apt), printed at 5' end
Regarding B1, the binding result is reported as “binds”.
